Source: publication PMC7334205

Tests used:
Assay in all cases: bimolecular fluorescence complementation (BiFC), quantitative imaging of nuclear Venus fluorescence in cells
[1] = target: VN-Impα2 (UniProt P52293); settings: 18 h post-transfection, mean ± SEM, three independent experiments, parent: est. 1.0, read off a plot
[2] = target: VC-ataxin-1[85Q] (UniProt P54253); settings: 18 h post-transfection; n = 155 (wild-type Impα2) and 131 (mDE) nuclei; mean ± SEM, three independent experiments; parent: est. 1.0; read off a plot
[3] = target: VN-CIC (UniProt Q96RK0); settings: 18 h post-transfection; n = 258 (85Q) and 201 (mVS) nuclei; mean ± SEM, three independent experiments; parent: est. 1.0; read off a plot
UniProt Q96RK0, sequence (Q96RK0 whole entry): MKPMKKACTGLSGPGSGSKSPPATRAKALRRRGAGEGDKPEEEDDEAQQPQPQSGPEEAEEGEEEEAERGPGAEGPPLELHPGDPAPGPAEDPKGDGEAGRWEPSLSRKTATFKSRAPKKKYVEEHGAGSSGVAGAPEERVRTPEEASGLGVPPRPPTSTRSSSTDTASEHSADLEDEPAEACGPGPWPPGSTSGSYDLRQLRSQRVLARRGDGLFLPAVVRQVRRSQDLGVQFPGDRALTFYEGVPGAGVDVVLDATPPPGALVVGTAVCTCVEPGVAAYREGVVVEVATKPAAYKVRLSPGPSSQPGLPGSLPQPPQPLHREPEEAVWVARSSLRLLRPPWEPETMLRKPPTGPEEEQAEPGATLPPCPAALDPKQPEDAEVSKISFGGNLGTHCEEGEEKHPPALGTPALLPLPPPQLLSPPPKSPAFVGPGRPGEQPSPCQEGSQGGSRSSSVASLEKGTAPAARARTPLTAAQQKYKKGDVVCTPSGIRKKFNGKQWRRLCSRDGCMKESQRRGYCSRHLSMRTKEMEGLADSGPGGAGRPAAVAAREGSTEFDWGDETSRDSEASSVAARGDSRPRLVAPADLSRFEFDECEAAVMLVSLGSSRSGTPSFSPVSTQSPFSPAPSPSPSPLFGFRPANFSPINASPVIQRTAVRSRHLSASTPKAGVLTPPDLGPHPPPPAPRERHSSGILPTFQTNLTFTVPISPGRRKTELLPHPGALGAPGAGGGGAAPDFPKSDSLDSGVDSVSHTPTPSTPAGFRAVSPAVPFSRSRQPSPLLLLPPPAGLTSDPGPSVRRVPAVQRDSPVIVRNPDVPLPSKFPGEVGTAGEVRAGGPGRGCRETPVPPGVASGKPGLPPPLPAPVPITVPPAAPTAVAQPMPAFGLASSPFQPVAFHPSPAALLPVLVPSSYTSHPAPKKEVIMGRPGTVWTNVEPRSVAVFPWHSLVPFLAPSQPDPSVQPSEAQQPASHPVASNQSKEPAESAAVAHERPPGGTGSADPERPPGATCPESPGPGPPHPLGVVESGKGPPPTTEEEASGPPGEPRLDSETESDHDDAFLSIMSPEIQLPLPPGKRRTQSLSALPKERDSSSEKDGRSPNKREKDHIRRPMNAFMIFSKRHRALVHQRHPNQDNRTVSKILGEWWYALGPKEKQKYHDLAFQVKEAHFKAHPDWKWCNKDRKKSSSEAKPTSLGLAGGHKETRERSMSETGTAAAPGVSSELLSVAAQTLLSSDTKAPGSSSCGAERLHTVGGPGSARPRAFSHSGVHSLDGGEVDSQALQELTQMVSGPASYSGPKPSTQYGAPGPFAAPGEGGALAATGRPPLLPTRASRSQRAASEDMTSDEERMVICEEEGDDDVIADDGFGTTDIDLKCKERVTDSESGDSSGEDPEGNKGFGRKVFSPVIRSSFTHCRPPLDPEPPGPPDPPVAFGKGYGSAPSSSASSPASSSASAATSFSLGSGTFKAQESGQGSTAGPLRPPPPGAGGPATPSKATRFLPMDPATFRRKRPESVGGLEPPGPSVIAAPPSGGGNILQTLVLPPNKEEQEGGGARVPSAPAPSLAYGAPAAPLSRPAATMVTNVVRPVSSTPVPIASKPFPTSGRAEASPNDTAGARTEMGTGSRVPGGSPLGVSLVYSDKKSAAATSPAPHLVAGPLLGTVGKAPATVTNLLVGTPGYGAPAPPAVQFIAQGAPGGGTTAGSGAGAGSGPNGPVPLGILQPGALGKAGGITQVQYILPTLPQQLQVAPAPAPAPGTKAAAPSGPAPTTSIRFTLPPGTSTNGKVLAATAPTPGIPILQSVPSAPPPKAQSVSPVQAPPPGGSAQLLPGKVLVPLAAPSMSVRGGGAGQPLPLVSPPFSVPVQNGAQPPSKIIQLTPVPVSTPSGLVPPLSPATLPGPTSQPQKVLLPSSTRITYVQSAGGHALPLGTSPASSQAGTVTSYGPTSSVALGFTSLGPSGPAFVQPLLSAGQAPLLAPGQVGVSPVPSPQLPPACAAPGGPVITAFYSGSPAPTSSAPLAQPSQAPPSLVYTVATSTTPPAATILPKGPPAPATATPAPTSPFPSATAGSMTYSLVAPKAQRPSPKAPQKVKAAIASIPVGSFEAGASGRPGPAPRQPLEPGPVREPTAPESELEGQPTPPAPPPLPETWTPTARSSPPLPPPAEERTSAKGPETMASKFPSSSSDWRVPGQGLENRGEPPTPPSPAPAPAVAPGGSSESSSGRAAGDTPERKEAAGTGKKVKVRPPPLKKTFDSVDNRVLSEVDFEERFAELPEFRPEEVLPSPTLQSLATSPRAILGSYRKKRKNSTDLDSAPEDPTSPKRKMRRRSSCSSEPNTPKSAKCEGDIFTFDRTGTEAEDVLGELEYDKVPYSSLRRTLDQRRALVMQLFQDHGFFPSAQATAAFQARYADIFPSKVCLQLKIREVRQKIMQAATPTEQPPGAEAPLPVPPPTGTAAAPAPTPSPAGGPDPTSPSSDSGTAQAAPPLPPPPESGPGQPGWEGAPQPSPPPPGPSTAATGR

## VC-ataxin-1[85Q] (from UniProt P54253) K772T
[1]; n = 155 (85Q) and 172 (K772T) nuclei
  ratio to parent: 0.55

## VN-Impα2 (from UniProt P52293) D192K; E396R
[2]
  ratio to parent: 0.75

## VC-ataxin-1[85Q] (from UniProt P54253) V591A; S602D
[3]
  ratio to parent: 0.47
[1]; n = 101 and 101 nuclei
  ratio to parent: 0.72
